In publication PMC5302063, “In vivo mapping of a dynamic ribonucleoprotein granule interactome in early Drosophila embryos” (FEBS Open Bio, 2016):

Target: T1, recombinant Aub with N-terminal His-, Myc- and 3xFLAG-tags (Drosophila, UniProt O76922 1-866)
T1 construct: Aubergine (Aub), Drosophila; aub cDNA cloned into pFastBac/NT-TOPO; also called FLAG-tagged Aub; Aubergine; source: Sf9 (bacmid from pFastBac/NT-TOPO), purified (anti-c-Myc beads, c-Myc peptide elution); not shown: Myc, N-terminal, kept; 3xFLAG, N-terminal, kept
T1 sequence (looked up): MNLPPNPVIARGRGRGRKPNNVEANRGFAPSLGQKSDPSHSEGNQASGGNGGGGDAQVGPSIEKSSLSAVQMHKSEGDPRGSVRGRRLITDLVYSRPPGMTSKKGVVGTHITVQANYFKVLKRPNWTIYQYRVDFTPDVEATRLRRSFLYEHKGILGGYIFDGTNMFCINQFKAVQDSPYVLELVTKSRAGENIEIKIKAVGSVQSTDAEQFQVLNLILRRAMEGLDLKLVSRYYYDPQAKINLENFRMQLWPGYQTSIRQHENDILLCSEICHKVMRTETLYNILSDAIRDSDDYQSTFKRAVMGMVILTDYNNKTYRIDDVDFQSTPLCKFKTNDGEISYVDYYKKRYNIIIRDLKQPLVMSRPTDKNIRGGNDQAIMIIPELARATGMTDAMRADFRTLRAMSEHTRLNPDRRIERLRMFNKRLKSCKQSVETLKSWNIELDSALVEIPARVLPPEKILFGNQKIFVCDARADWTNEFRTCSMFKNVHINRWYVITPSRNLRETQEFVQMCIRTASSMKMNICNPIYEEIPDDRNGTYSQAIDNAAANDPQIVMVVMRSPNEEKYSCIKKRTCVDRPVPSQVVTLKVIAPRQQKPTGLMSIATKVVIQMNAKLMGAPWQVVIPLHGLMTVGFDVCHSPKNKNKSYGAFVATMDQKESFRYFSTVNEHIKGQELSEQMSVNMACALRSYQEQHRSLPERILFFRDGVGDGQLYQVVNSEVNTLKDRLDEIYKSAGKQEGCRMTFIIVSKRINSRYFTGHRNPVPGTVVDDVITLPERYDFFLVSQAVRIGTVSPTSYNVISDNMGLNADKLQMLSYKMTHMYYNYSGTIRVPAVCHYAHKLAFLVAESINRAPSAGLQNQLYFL
Assay: pull-down; purified FLAG-tagged Aub or FLAG-GFP control bound to anti-FLAG beads; purified Myc-eIF4A added in PBS, 0.05% IGEPAL CA-630, 4 °C, 60 min; western blot with anti-c-Myc
Conditions: both partners purified

B1: Myc-tagged eIF4A (enzyme, Drosophila, UniProt Q02748 1-403, looked up)
chain: MDDRNEIPQDGPASMEPEGVIESTWHEVYDNFDDMNLREELLRGIYGYGFEKPSAIQQRAIIPCVRGRDVIAQAQSGTGKTATFSIAILQQIDTSIRECQALILAPTRELATQIQRVVMALGEYMKVHSHACIGGTNVREDARILESGCHVVVGTPGRVYDMINRKVLRTQYIKLFVLDEADEMLSRGFKDQIQDVFKMLPPDVQVILLSATMPPDVLEVSRCFMRDPVSILVKKEELTLEGIKQFYVNVKQENWKLGTLCDLYDTLSITQSVIFCNTRRKVDQLTQEMSIHNFTVSAMHGDMEQRDREVIMKQFRSGSSRVLITTDLLARGIDVQQVSLVINYDLPSNRENYIHRIGRGGRFGRKGVAINFITDDDRRILKDIEQFYHTTIEEMPANIADLI
notes: eukaryotic translation initiation factor 4A (eIF4A), ATP-dependent RNA helicase, Drosophila; also called Myc-eIF4A; eukaryotic translation initiation factor 4A; source: S2 cells, purified (anti-c-Myc beads, c-Myc peptide elution)
Question: Does B1 bind?
Answer: binds
